Laboratory results from patent publication US20240132624A1 (Ablynx, published 2024).

What was measured:
human FcRn/b2M [1] = biological target: T1, human FcRn/b2M (human, UniProt P61769 21-119, biotinylated); test: SPR pH 6.0;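 note: surface plasmon resonance kinetics at 25 °C, diluted periplasmic extracts injected over immobilized ligand surfaces, 120 s association then 600–3600 s dissociation, running buffer containing 150 mM NaCl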
T1 construct: bought recombinant biotinylated protein (ACRO FCM-H82W4 or Immunitrack ITF01); also called hFcRn; hFcRn/hb2M
T1 sequence (chain, as listed by the source limits assumed, chain 1 of 2): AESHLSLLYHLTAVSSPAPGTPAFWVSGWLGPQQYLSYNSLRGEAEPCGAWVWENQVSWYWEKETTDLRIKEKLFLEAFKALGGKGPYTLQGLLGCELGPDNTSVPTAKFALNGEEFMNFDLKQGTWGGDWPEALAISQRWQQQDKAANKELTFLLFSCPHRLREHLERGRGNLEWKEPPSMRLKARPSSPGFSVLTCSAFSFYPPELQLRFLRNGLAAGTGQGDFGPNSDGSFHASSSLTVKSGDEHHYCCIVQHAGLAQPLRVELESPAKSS
T1 sequence (P61769 21-119 limits assumed, chain 2 of 2): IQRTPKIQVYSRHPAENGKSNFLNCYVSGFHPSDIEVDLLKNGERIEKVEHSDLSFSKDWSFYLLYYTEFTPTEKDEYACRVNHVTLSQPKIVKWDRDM
Description: (§1) All kinetic measurements have been performed on ProteOn XPR36 (BioRad Laboratories, Inc.), MASS-2 (Sierra sensors, Gmbh) or SPR-32 (Bruker Corporation). […] The phytip purified periplasmic extracts were diluted 1:10 in running buffer (CPA+150 mM NaCl+0.005% Tw20 at pH 5.5, pH 6.0 or pH 7.4) and injected over the ligand surfaces (association: 120 s at 45 μL/min; dissociation: 600s-3600 s at 45 μL/min). Experiments were carried out at 25° C.

cyno FcRn/b2M [2] = biological target: T2, cyno FcRn/b2M (cyno, UniProt Q8SPV9 24-297; Q8SPW0 21-119, biotinylated); test: SPR pH 6.0;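 note: surface plasmon resonance kinetics at 25 °C, diluted periplasmic extracts injected over immobilized ligand surfaces, 120 s association then 600–3600 s dissociation, running buffer containing 150 mM NaCl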
T2 construct: bought recombinant biotinylated protein (Immunitrack ITF05 or ACRO FCM-C82W5); also called cFcRn; cFcRn/cb2M
T2 sequence (Q8SPV9 24-297 limits assumed, chain 1 of 2): as the sequence (chain, as listed by the source limits assumed, chain 1 of 2) above, with N39D, E44Q, G99S, S189G, S190N, L217M, S269T counted along it
T2 sequence (Q8SPW0 21-119 limits assumed, chain 2 of 2): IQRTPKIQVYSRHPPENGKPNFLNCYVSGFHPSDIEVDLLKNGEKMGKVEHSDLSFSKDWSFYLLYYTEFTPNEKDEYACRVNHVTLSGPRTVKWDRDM
Description: as §1

human FcRn/b2M [3] = biological target: T1, human FcRn/b2M; test: SPR pH 7.4;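 note: surface plasmon resonance kinetics, periplasmic extracts diluted 1:10 flowed over immobilized target at 25 °C, 120 s association then 600–3600 s dissociation, buffer with 150 mM NaCl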
Description: as §1

cyno FcRn/b2M [4] = biological target: T2, cyno FcRn/b2M; test: SPR pH 7.4;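 note: surface plasmon resonance kinetics, periplasmic extracts diluted 1:10 flowed over immobilized target at 25 °C, 120 s association then 600–3600 s dissociation, buffer with 150 mM NaCl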
Description: as §1

human FcRn/b2M [5] = biological target: T1, human FcRn/b2M; test: SPR off-rate; pH 7.4 vs pH 6.0;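 note: surface plasmon resonance with diluted periplasmic extracts flowed over ligand surfaces, 120 s association and 600–3600 s dissociation at 25 °C, running buffer containing 150 mM NaCl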
Description: as §1

cyno FcRn/b2M [6] = biological target: T2, cyno FcRn/b2M; test: SPR off-rate; pH 7.4 vs pH 6.0;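 note: surface plasmon resonance with diluted periplasmic extracts flowed over ligand surfaces, 120 s association and 600–3600 s dissociation at 25 °C, running buffer containing 150 mM NaCl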
Description: as §1

Binder	koff (human FcRn/b2M [1]) [s⁻¹]	koff (cyno FcRn/b2M [2]) [s⁻¹]	koff (human FcRn/b2M [3]) [s⁻¹]	koff (cyno FcRn/b2M [4]) [s⁻¹]	kd ratio pH 7.4/6.0 (human FcRn/b2M [5])	kd ratio pH 7.4/6.0 (cyno FcRn/b2M [6])
T0263018B11 S52R (VHH, name in Kabat numbering, FLAG3-His6 tagged) VHH: EVQLVESGGGVVQPGGSLRLSCAASGFTFSSYAMYWVRQAPGKGLEWVSAIRSGGGSTDYADSVKGRFTISRDNSKNTLYLQMNSLRPEDTALYYCAADTLYTSLTWYSYWGQGTLVTVSS	0.023	0.016	0.44	0.38	20	24
T0263018B11 S52aG (VHH, name in Kabat numbering, FLAG3-His6 tagged) VHH: EVQLVESGGGVVQPGGSLRLSCAASGFTFSSYAMYWVRQAPGKGLEWVSAISGGGGSTDYADSVKGRFTISRDNSKNTLYLQMNSLRPEDTALYYCAADTLYTSLTWYSYWGQGTLVTVSS	0.00088	0.0006	0.034	0.031	39	51
T0263018B11 S52aN (VHH, name in Kabat numbering, FLAG3-His6 tagged) VHH: EVQLVESGGGVVQPGGSLRLSCAASGFTFSSYAMYWVRQAPGKGLEWVSAISNGGGSTDYADSVKGRFTISRDNSKNTLYLQMNSLRPEDTALYYCAADTLYTSLTWYSYWGQGTLVTVSS	0.0012	0.00079	0.063	0.047	51	60
T0263018B11 S56H (VHH, name in Kabat numbering, FLAG3-His6 tagged) VHH: EVQLVESGGGVVQPGGSLRLSCAASGFTFSSYAMYWVRQAPGKGLEWVSAISSGGGHTDYADSVKGRFTISRDNSKNTLYLQMNSLRPEDTALYYCAADTLYTSLTWYSYWGQGTLVTVSS	0.0016	0.0013	0.055	0.046	35	36
T0263018B11 S56A (VHH, name in Kabat numbering, FLAG3-His6 tagged) VHH: EVQLVESGGGVVQPGGSLRLSCAASGFTFSSYAMYWVRQAPGKGLEWVSAISSGGGATDYADSVKGRFTISRDNSKNTLYLQMNSLRPEDTALYYCAADTLYTSLTWYSYWGQGTLVTVSS	0.0013	0.001	0.051	0.045	39	45
T0263018B11 S52aR (VHH, name in Kabat numbering, FLAG3-His6 tagged) VHH: EVQLVESGGGVVQPGGSLRLSCAASGFTFSSYAMYWVRQAPGKGLEWVSAISRGGGSTDYADSVKGRFTISRDNSKNTLYLQMNSLRPEDTALYYCAADTLYTSLTWYSYWGQGTLVTVSS	0.0023	0.0015	0.13	0.091	56	61
T0263018B11 S52aA (VHH, name in Kabat numbering, FLAG3-His6 tagged) VHH: EVQLVESGGGVVQPGGSLRLSCAASGFTFSSYAMYWVRQAPGKGLEWVSAISAGGGSTDYADSVKGRFTISRDNSKNTLYLQMNSLRPEDTALYYCAADTLYTSLTWYSYWGQGTLVTVSS	0.00068	0.00043	0.029	0.022	43	51
T0263018B11 S52aE (VHH, name in Kabat numbering, FLAG3-His6 tagged) VHH: EVQLVESGGGVVQPGGSLRLSCAASGFTFSSYAMYWVRQAPGKGLEWVSAISEGGGSTDYADSVKGRFTISRDNSKNTLYLQMNSLRPEDTALYYCAADTLYTSLTWYSYWGQGTLVTVSS	0.00087	0.00077	0.036	0.039	41	51
T0263018B11 S56K (VHH, name in Kabat numbering, FLAG3-His6 tagged) VHH: EVQLVESGGGVVQPGGSLRLSCAASGFTFSSYAMYWVRQAPGKGLEWVSAISSGGGKTDYADSVKGRFTISRDNSKNTLYLQMNSLRPEDTALYYCAADTLYTSLTWYSYWGQGTLVTVSS	0.0021	0.0018	0.053	0.044	25	25
T0263018B11 S52aP (VHH, name in Kabat numbering, FLAG3-His6 tagged) VHH: EVQLVESGGGVVQPGGSLRLSCAASGFTFSSYAMYWVRQAPGKGLEWVSAISPGGGSTDYADSVKGRFTISRDNSKNTLYLQMNSLRPEDTALYYCAADTLYTSLTWYSYWGQGTLVTVSS	0.00054	0.0003	0.029	0.021	53	71
T0263018B11 S52aW (VHH, name in Kabat numbering, FLAG3-His6 tagged) VHH: EVQLVESGGGVVQPGGSLRLSCAASGFTFSSYAMYWVRQAPGKGLEWVSAISWGGGSTDYADSVKGRFTISRDNSKNTLYLQMNSLRPEDTALYYCAADTLYTSLTWYSYWGQGTLVTVSS	0.0015	0.0008	0.062	0.043	41	54
T0263018B11 S52aY (VHH, name in Kabat numbering, FLAG3-His6 tagged) VHH: EVQLVESGGGVVQPGGSLRLSCAASGFTFSSYAMYWVRQAPGKGLEWVSAISYGGGSTDYADSVKGRFTISRDNSKNTLYLQMNSLRPEDTALYYCAADTLYTSLTWYSYWGQGTLVTVSS	0.00083	0.00052	0.035	0.023	42	44
T0263018B11 S52aM (VHH, name in Kabat numbering, FLAG3-His6 tagged) VHH: EVQLVESGGGVVQPGGSLRLSCAASGFTFSSYAMYWVRQAPGKGLEWVSAISMGGGSTDYADSVKGRFTISRDNSKNTLYLQMNSLRPEDTALYYCAADTLYTSLTWYSYWGQGTLVTVSS	0.00048	0.00027	0.018	0.013	36	48
T0263018B11 S52V (VHH, name in Kabat numbering, FLAG3-His6 tagged) VHH: EVQLVESGGGVVQPGGSLRLSCAASGFTFSSYAMYWVRQAPGKGLEWVSAIVSGGGSTDYADSVKGRFTISRDNSKNTLYLQMNSLRPEDTALYYCAADTLYTSLTWYSYWGQGTLVTVSS	0.0024	0.0025	0.058	0.064	24	25
T0263018B11 S52aV (VHH, name in Kabat numbering, FLAG3-His6 tagged) VHH: EVQLVESGGGVVQPGGSLRLSCAASGFTFSSYAMYWVRQAPGKGLEWVSAISVGGGSTDYADSVKGRFTISRDNSKNTLYLQMNSLRPEDTALYYCAADTLYTSLTWYSYWGQGTLVTVSS	0.0027	0.0021	0.081	0.095	30	45
T0263018B11 S52T (VHH, name in Kabat numbering, FLAG3-His6 tagged) VHH: EVQLVESGGGVVQPGGSLRLSCAASGFTFSSYAMYWVRQAPGKGLEWVSAITSGGGSTDYADSVKGRFTISRDNSKNTLYLQMNSLRPEDTALYYCAADTLYTSLTWYSYWGQGTLVTVSS	0.0019	0.0017	0.045	0.042	24	25
T0263018B11 S52aT (VHH, name in Kabat numbering, FLAG3-His6 tagged) VHH: EVQLVESGGGVVQPGGSLRLSCAASGFTFSSYAMYWVRQAPGKGLEWVSAISTGGGSTDYADSVKGRFTISRDNSKNTLYLQMNSLRPEDTALYYCAADTLYTSLTWYSYWGQGTLVTVSS	0.0016	0.0012	0.062	0.059	39	49
